# In patent US20240010721A1 (HARBOUR BIOMED SHANGHAI, published 2024):
# Where a chain is given by its changes, count along the chain named.
# B1: Positive control antibody (PR000374) (antibody, human IgG1, kappa, V domains shown)
# VH: EVQLVESGGGLVQPGRSLRLSCTASGSDINDYPITWVRQAPGQGLEWIGFINSGGSTWYASWVKGRFTISRDDSKSIAYLQMNSLKTEDTAVYYCARGYSTYYRDFNIWGQGTLVTVSS
# VL: DIQMTQSPSSLSASVGDRVTINCQASQSIDSNLAWFQQKPGQPPKLLIYRASNLASGVPDRFSGSGSGTDFTLTISSLEAEDVATYYCLGGVGAVSYRTSFGGGTKVEIKR
# B2: PR001353 (antibody, V domains shown)
# VH: QVQLVESGGGVVQPGRSLRLSCVASGFTFSSYGMHWVRQAPGKGLEWVSVAWYDGISKDYADSVKGRFTISRDNSMNTLFLQMNSLRAEDTAVYYCAREQARSFDLWGRGTLVTVSS
# VL: not shown
# notes: fully human IgG1, kappa
# B3: PR001357 (antibody, human IgG1, kappa, V domains shown)
# VH: B2 VH with E6Q, V23A, S49A, A51I, I56S, S57N, N74T, M76K, F80Y
# VL: DIQLTQSPYSLSASVGDRVTITCRASQTINNWLAWYQQKPGKAPKLLIYKASSLESGVPSRFSGSGSGTEFTLTISSLQPDDFATYYCQQYKLYSPMYTFGQGTKVEIKR
# notes: fully human IgG1, kappa
# B4: PR001362 (antibody, V domains shown)
# VH: QVQLVESGGGLVQPGGSLRLSCAASGFTFSTYGMHWVRQAPGKGLEWVAVIWYDGSDEDYADSVKGRFTISRDNSKNTLYLQMNSLRAEDTAVYYCARDQARSFDLWGRGTLVTVSS
# VL: B3 VL with Q3V, L4M, Y9S, S10T, T28S, N31S, L93S
# notes: fully human IgG1, kappa
# B5: PR001354 (antibody, human IgG1, kappa, V domains shown)
# VH: B4 VH with E6Q, L11V, G16R, T31S, V50I, I51M, E58K, N74T, D99E
# VL: B3 VL with Q3V, L4M, Y9S, K92N, L93S
# notes: fully human IgG1, kappa; also called anti-ROR1 1015M2-C9 hIgG1; PR001354(WT)
# B6: PR001419 (antibody, V domains shown)
# VH: B2 VH with V23A, S49A, V50I, A51I, D59N, N74M, M76N, L79V, F80Y, R98K
# VL: not shown
# notes: fully human IgG1, kappa
# B7: PR001418 (antibody, human IgG1, kappa, V domains shown)
# VH: B4 VH with L11V, G16R, T31S, E58K, N74T, D99E
# VL: B3 VL with Q3V, L4M, Y9S, S10T, K92N, L93S, V106L
# notes: fully human IgG1, kappa
# Molecular target: T1, human ROR1 (hROR1) on cells (human, UniProt Q01973 30-937)
# T1 construct: whole, on cells; the cell line is named under assay; also called HEK293T-hROR1; 293T-hROR1
# T1 sequence (Q01973 30-937): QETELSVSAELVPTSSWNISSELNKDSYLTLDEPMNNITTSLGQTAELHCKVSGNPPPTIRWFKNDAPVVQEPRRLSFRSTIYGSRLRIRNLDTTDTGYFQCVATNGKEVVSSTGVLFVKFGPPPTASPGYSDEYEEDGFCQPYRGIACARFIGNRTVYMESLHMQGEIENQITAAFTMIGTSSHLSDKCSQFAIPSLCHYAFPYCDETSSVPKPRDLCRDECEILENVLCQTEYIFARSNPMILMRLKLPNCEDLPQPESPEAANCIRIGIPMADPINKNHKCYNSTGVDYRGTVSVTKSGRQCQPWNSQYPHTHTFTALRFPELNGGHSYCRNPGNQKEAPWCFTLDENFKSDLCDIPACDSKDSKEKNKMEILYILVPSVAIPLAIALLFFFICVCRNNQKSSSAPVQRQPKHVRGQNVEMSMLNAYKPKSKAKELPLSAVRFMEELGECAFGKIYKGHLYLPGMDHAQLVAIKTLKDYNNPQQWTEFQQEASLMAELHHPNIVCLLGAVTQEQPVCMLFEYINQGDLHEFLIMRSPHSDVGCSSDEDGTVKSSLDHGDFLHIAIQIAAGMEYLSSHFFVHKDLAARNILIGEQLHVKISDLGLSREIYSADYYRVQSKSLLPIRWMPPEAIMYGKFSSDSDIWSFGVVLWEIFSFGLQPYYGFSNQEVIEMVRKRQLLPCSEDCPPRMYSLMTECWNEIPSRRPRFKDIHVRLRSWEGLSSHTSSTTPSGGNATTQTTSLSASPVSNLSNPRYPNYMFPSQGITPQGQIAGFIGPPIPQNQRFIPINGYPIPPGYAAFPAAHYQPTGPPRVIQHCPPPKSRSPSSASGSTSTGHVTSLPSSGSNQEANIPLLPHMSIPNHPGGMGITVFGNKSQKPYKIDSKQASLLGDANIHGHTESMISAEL
# Test: FACS, A549 cells
# Description: (§1) The binding properties were characterized by FACS. The recombinant antibodies obtained above were serially diluted to 9 different concentrations and incubated for 1 h, and then determined for the binding ability with HEK293T-hROR1, CHO-K1-cynoROR1 and A549 cell lines (endogenously expressing ROR1), respectively. The secondary antibody was then incubated for 1 h. The results are shown in FIG. 4-6 and Table 7-2 below.
row,Binder,MAX(MFI)
1,B1,3850
2,B2,4330
3,B3,4550
4,B4,3750
5,B5,4300

# Molecular target: T1, human ROR1 (hROR1) on cells
# Test: FACS, Panc-1 cells
row,Binder,MFI [MFI]
1,B5,6700

# Molecular target: T1, human ROR1 (hROR1) on cells
# Test: FACS, HEK293T-hROR1 cells
# Description: as §1
row,Binder,fold lower EC50 than reference PR000374 [fold]
1,B2,10
2,B6,10
3,B3,10
4,B7,10
5,B4,10
6,B5,10

# Molecular target: T1, human ROR1 (hROR1) on cells
# Test: cell-based or functional assay
row,Binder,"endocytosis EC50(nM) (a-hFc-MMAF killing, CTG luminescence)"
1,B1,0.243
2,B2,0.149
3,B3,0.137
4,B5,0.143

# Molecular target: T1, human ROR1 (hROR1) on cells
# Test: cell-based or functional assay
# Remark: another data set of the same source
Binder,"ADCC Cytotoxicity (%), Donor 1, 1 nM [%]","ADCC Cytotoxicity (%), Donor 1, 10 nM [%]","ADCC Cytotoxicity (%), Donor 2, 1 nM [%]","ADCC Cytotoxicity (%), Donor 2, 10 nM [%]"
B1,14.4,25.4,11.4,18.2
B2,30.5,42.3,14.1,21.5
B3,32.1,32.1,17.4,15.8
B4,13.9,26.9,13.2,19.2
B5,33.5,34.7,14.4,15.9

# Molecular target: T1, human ROR1 (hROR1) on cells
# Test: FACS, HEK293T-hROR1 cells
# Remark: another data set of the same source
row,Binder,MFI [MFI]
1,B5,42800

# Molecular target: T2, cynomolgus ROR1 (cynoROR1) on CHO-K1 cells (cynomolgus, UniProt A0A2K5WTX7 30-937)
# T2 construct: whole, on cells; also called CHO-K1-cynoROR1; CHO-K1-cyROR1
# Test: FACS, CHO-K1-cynoROR1 cells
# Description: as §1
row,Binder,MAX(MFI)
1,B1,31900
2,B2,29000
3,B3,24600
4,B4,17700
5,B5,27000

# Molecular target: T3, ROR1 (antigen of the KD determination and of the Octet dissociation measurement) (UniProt Q01973 30-403, limits assumed)
# T3 sequence (Q01973 30-403 limits assumed): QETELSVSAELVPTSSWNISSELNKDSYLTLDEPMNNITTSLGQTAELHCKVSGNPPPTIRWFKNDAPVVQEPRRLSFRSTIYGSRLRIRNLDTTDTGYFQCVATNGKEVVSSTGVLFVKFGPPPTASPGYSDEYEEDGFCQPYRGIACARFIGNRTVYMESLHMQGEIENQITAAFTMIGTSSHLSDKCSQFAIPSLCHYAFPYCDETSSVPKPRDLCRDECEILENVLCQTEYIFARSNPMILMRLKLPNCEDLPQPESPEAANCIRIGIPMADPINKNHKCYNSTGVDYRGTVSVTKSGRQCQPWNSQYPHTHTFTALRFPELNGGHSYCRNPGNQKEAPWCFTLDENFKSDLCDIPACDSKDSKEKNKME
# Test: Octet, antigen form not stated
Binder,Response,koff [s⁻¹]
B5,0.609,0.000117

# Molecular target: T4, hROR2ECD-his (human, UniProt Q01974 34-403)
# T4 construct: extracellular domain; bought, Acrobiosystems R02-H52E5; also called huROR2-his
# T4 sequence (Q01974 34-403): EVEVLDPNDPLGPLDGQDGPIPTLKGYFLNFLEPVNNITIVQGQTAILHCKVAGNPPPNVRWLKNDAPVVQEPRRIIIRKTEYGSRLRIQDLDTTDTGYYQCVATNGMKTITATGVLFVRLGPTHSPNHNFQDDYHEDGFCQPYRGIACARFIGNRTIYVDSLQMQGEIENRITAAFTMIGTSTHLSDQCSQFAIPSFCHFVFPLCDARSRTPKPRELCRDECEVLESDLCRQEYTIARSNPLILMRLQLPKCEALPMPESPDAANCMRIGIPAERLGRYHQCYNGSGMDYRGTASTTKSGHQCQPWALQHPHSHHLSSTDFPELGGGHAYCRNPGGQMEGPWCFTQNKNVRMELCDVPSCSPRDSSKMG
# Test: ELISA, plate coated with hROR2 ECD-his
# Description: (§2) Screening by ELISA assay: 96-well plates (Corning 9018) were coated with 1 μg/mL hROR1 ECD-his/hROR2 ECD-his/mROR1 ECD-his proteins prepared with PBS in Example 1a above and incubated at 4° C. overnight. The liquid was then discarded, and the plates were washed 3 times with PBST, blocked with 5% milk for 2 h at room temperature, and washed 3 times with PBST. The taken supernatant was added at 100 μL/well, and the plates were incubated at room temperature for 1 h, followed by washing 3 times with PBST. 100 μL/well of secondary antibody (Sigma, Cat#: A8592) was added, the plates were incubated at room temperature for 1 h, and then washed. TMB was then added to the plates at 100 μL/well and incubated for 15 min at room temperature. Thereafter, the reaction was terminated and data were read.
# (§3) a. Results of ELISA assay (the ELISA assay was performed according to the same procedures as in Example 2c, except that the added samples were recombinant antibodies and the secondary antibody was a-Fc (Genscript, Cat#: A01854))
# The corresponding values in the table are the measured median fluorescence intensity (MFI).
row,Binder,binding result
1,B2,no binding
2,B6,no binding
3,B3,no binding
4,B7,no binding
5,B4,no binding
6,B5,no binding

# Molecular target: T5, Human ROR1-ECD-his (human, UniProt Q01973 30-406)
# T5 construct: extracellular domain; bought, Acrobiosystems RO1-H522y; also called hROR1-ECD-his; hROR1 ECD-his
# T5 sequence (Q01973 30-406): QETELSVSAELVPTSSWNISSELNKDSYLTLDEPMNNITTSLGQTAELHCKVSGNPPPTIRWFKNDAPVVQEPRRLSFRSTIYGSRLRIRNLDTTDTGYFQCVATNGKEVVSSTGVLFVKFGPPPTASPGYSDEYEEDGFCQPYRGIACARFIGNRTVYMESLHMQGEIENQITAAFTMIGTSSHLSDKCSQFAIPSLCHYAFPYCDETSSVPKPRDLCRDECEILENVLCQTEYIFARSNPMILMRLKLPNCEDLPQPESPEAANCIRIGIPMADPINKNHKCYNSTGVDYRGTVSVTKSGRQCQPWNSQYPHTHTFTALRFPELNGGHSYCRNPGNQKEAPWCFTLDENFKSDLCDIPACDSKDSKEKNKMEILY
# Test: ELISA, plate coated with hROR1 ECD-his
# Description: as §2, §3
row,Binder,ELISA signal (called MFI)
1,B1,2.48
2,B2,2.54
3,B6,2.44
4,B3,2.5
5,B7,2.42
6,B4,2.22
7,B5,2.44

# Molecular target: T4, hROR2ECD-his
# Test: ELISA, plate coated with hROR2 ECD-his
# Remark: another data set of the same source
# Description: as §2, §3
row,Binder,ELISA signal (called MFI)
1,B1,0.022
2,B2,0.031
3,B6,0.025
4,B3,0.04
5,B7,0.042
6,B4,0.032
7,B5,0.027

# Molecular target: T3, ROR1 (antigen of the KD determination …)
# Test: method not stated (conventional procedures)
Binder,Kd [nM],koff [s⁻¹],kon [M⁻¹ s⁻¹]
B1,0.397,0.000173,437000
B2,2.21,0.000927,419000
B6,3.01,0.00117,389000
B3,0.481,0.000191,397000
B7,1.45,0.000423,292000
B4,45.4,0.0136,300000
B5,1.13,0.000383,339000

# Molecular target: T1, human ROR1 (hROR1) on cells
# Test: FACS, HEK293T-hROR1 cells; cytometer saturated
# Description: as §1
row,Binder,MAX(MFI)
1,B1,262000
2,B2,262000
3,B3,262000
4,B4,262000
5,B5,262000

# Molecular target: T1, human ROR1 (hROR1) on cells
# Test: flow cytometry (FACS) on HEK293T-hROR1 cells, antibody 0.01-100 nM, median fluorescence intensity
# Description: as §1
row,Binder,EC50 (read off the curve) [nM]
1,B1,~9
2,B6,~3
3,B7,~3

# Molecular target: T2, cynomolgus ROR1 (cynoROR1) on CHO-K1 …
# Test: flow cytometry (FACS) on CHO-K1-cynoROR1 cells, antibody 0.01-100 nM, median fluorescence intensity
# Description: as §1
row,Binder,EC50 (read off the curve) [nM]
1,B1,~3
2,B4,~2

# Molecular target: T2, cynomolgus ROR1 (cynoROR1) on CHO-K1 …
# Test: as above
# Remark: another data set of the same source
# Description: as §1
row,Binder,EC50 (read off the curve) [nM]
1,B1,~5
2,B6,~0.7
3,B7,~1

# Molecular target: T1, human ROR1 (hROR1) on cells
# Test: flow cytometry (FACS) on A549 cells (endogenous ROR1), antibody 0.01-100 nM, median fluorescence intensity
# Description: as §1
row,Binder,EC50 (read off the curve) [nM]
1,B1,~3
2,B6,~0.2
3,B7,~0.4
